According to ChEMBL document CHEMBL3525898, “Pharmacogenomics of gemcitabine metabolism: functional analysis of genetic variants in cytidine deaminase and deoxycytidine kinase” (Drug Metab Dispos, 2013):

Substrate: Nc1ccn([C@@H]2O[C@H](CO)[C@@H](O)C2(F)F)c(=O)n1
Assay: Activity of human recombinant N-terminal His-SUMO fused wild type CDA expressed in Escherichia coli BL21(DE3) cells assessed as 2',2'-difluorodeoxyuridine formation by liquid chromatography-tandem mass spectrometry
Format: ADME

B1: Cytidine deaminase (Homo sapiens) (protein)
chain: MAQKRPACTLKPECVQQLLVCSQEAKKSAYCPYSHFPVGAALLTQEGRIFKGCNIENACYPLGICAERTAIQKAVSEGYKDFRAIAIASDMQDDFISPCGACRQVMREFGTNWPVYMTKPDGTYIVMTVQELLPSSFGPEDLQKTQ
Km: 630 µM | Vmax: 0.187 µmol/min/mg
